According to patent US9073974B2, “RGD-containing cyclic peptides” (The Regents of the University of California, priority 2009, dated 2015):
Numbered stars: 1 amine (or outer) side, 2 acyl side, 3 side chain; on linkers, the order of the positions; unused ones are H or OH. Bridge positions count the residues as written; N and C are the ends. Square brackets hold non-standard residues; d marks the D form. Primed or numbered codes have the meaning given here. Ends that are not written are not given here. Peptide text beside a SMILES is read from it. * marks the point of attachment. Ebes(3) = 2,2'-ethylenedioxy bis(ethylamine) monosuccinamide, NCCOCCOCCNC(=O)CCC(=O)*; N(CH2CH2CO)Gly = O=C(CN(CCC(=O)[*:3])[*:1])[*:2]; Pro(5R-Ph) = O=C(O)[C@@H]1CC[C@H](c2ccccc2)N1; dAla(4-thiazolyl) = N[C@H](Cc1cscn1)C(=O)O; d(αMeV) = CC(C)[C@@](C)(N)C(=O)O; dCit = NC(=O)NCCC[C@@H](N)C(=O)O; Isobutyryl = CC(C)C(=O)*

Target: T1, αvβ3 integrin (human, UniProt P06756 31-1048; P05106 27-788)
T1 construct: whole, on cells; Same entry used for αvβ3-K562, U-87 MG and A375M cells; also called αvβ3-K562; αvβ3 transfected K562 cells
T1 sequence (P06756 31-1048, chain 1 of 2): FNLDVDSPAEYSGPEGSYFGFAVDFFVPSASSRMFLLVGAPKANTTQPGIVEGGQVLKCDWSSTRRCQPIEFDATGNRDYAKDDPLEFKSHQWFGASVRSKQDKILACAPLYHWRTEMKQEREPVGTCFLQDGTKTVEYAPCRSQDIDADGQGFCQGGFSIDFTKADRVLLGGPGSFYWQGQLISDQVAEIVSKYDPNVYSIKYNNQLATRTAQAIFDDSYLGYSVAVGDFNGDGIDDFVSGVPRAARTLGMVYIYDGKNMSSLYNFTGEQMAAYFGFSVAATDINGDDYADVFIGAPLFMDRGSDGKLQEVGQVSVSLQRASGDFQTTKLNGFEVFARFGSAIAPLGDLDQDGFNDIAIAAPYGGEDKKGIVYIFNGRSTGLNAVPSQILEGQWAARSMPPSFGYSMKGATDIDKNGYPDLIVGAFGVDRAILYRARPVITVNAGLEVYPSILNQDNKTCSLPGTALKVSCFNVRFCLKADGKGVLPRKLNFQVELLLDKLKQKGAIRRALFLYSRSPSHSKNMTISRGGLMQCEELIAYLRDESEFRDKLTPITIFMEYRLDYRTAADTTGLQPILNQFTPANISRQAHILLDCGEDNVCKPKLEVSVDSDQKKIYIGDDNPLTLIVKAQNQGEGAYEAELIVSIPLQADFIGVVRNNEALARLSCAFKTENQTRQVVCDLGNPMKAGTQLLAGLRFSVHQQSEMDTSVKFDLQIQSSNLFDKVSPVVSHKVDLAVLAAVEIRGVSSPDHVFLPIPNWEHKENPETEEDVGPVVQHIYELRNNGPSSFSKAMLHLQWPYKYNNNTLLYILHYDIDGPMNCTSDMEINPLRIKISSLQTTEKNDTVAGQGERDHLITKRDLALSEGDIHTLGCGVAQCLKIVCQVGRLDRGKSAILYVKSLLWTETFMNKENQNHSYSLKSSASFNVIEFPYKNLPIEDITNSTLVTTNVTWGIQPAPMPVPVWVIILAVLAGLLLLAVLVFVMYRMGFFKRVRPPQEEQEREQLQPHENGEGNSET
T1 sequence (P05106 27-788, chain 2 of 2): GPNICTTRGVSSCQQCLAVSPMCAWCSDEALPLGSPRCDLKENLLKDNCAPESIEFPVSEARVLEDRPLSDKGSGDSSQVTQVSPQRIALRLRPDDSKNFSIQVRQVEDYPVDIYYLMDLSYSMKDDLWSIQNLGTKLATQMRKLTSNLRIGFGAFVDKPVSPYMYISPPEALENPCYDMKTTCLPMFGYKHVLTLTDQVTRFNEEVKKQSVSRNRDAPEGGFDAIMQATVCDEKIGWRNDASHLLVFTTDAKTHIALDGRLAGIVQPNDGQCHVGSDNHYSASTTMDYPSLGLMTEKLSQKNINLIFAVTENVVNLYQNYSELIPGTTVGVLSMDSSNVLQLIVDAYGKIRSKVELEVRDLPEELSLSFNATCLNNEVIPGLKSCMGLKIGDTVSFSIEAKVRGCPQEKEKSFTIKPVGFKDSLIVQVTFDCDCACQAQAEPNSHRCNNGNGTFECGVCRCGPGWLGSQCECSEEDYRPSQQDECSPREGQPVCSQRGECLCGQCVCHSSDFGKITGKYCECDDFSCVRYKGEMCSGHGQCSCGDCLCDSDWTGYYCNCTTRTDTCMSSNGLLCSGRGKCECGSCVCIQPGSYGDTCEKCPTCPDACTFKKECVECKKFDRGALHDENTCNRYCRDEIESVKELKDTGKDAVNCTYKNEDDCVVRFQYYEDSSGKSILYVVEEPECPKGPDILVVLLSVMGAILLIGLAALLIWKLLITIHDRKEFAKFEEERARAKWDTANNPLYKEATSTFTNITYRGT
Experiment: flow cytometry, competition with biotinylated LXW7 on αvβ3-K562 cells; + = IC50 >10 µM
Conditions: not given

Row | IC50 | Molecule
1 | > 10000 nM | [dC]GRGD[dCit][Pro(5R-Ph)][dC]-NH2 (disulfide 1-8; N-terminus assumed; SMILES N=C(N)NCCC[C@@H]1NC(=O)CNC(=O)[C@H](N)CSSC[C@H](C(N)=O)NC(=O)[C@@H]2CC[C@H](c3ccccc3)N2C(=O)[C@@H](CCCNC(N)=O)NC(=O)[C@H](CC(=O)O)NC(=O)CNC1=O) [LXW70]
2 | > 10000 nM | CGRGD[dD][dAla(4-thiazolyl)]C-NH2 (disulfide 1-8; N-terminus assumed; SMILES N=C(N)NCCC[C@@H]1NC(=O)CNC(=O)[C@@H](N)CSSC[C@@H](C(N)=O)NC(=O)[C@@H](Cc2cscn2)NC(=O)[C@@H](CC(=O)O)NC(=O)[C@H](CC(=O)O)NC(=O)CNC1=O, also called CGRGDd-DTha-C) [LXW39]
3 | > 10000 nM | [dC]GRGD[dD][d(αMeV)][dC]-NH2 (disulfide 1-8; N-terminus assumed; SMILES CC(C)[C@@]1(C)NC(=O)[C@@H](CC(=O)O)NC(=O)[C@H](CC(=O)O)NC(=O)CNC(=O)[C@H](CCCNC(=N)N)NC(=O)CNC(=O)[C@H](N)CSSC[C@H](C(N)=O)NC1=O) [LXW23]
4 | > 10000 nM | [dC]GRGD[N(CH2CH2CO)Gly][Pro(5R-Ph)][dC]-NH2 (disulfide 1-8; N-terminus assumed; SMILES N=C(N)NCCC[C@@H]1NC(=O)CNC(=O)[C@H](N)CSSC[C@H](C(N)=O)NC(=O)[C@@H]2CC[C@H](c3ccccc3)N2C(=O)CN(CCC(=O)O)C(=O)[C@H](CC(=O)O)NC(=O)CNC1=O, also called cGRGD-NGlu-Ppca-c) [LXW72]

Target: T1, αvβ3 integrin
Experiment: flow cytometry, competition with FITC-Echistatin on αvβ3-K562 cells; ++ = IC50 1-10 µM
Conditions: not given

Row | IC50 | Molecule
5 | 1000 to 10000 nM | [dC]GRGD[dD][dS][dC]-NH2 (disulfide 1-8; N-terminus assumed; SMILES N=C(N)NCCC[C@@H]1NC(=O)CNC(=O)[C@H](N)CSSC[C@H](C(N)=O)NC(=O)[C@@H](CO)NC(=O)[C@@H](CC(=O)O)NC(=O)[C@H](CC(=O)O)NC(=O)CNC1=O) [LXW5]
6 | 1000 to 10000 nM | [dC]GRGD[dD][dF][dC]-NH2 (disulfide 1-8; N-terminus assumed; SMILES N=C(N)NCCC[C@@H]1NC(=O)CNC(=O)[C@H](N)CSSC[C@H](C(N)=O)NC(=O)[C@@H](Cc2ccccc2)NC(=O)[C@@H](CC(=O)O)NC(=O)[C@H](CC(=O)O)NC(=O)CNC1=O) [LXW2]
7 | 1000 to 10000 nM | [dC]GRGD[dS][dF][dC]-NH2 (disulfide 1-8; N-terminus assumed; SMILES N=C(N)NCCC[C@@H]1NC(=O)CNC(=O)[C@H](N)CSSC[C@H](C(N)=O)NC(=O)[C@@H](Cc2ccccc2)NC(=O)[C@@H](CO)NC(=O)[C@H](CC(=O)O)NC(=O)CNC1=O) [LXW1]

Target: T1, αvβ3 integrin
Experiment: flow cytometry, competition with biotinylated LXW7 on αvβ3-K562 cells; +++ = IC50 <1 µM
Conditions: not given

Row | IC50 | Molecule
8 | < 1000 nM | [dC]GRGD[dD][dW][dC]-NH2 (disulfide 1-8; N-terminus assumed; SMILES N=C(N)NCCC[C@@H]1NC(=O)CNC(=O)[C@H](N)CSSC[C@H](C(N)=O)NC(=O)[C@@H](Cc2c[nH]c3ccccc23)NC(=O)[C@@H](CC(=O)O)NC(=O)[C@H](CC(=O)O)NC(=O)CNC1=O) [LXW68]
9 | < 1000 nM | {3,5‑dihydroxy benzoyl}-[dC]GRGD[dD][dV][dC]-NH2 (disulfide 1-8) [LXW83]
10 | < 1000 nM | {4‑(trifluoromethyl)benzoyl}-[dC]GRGD[dD][dV][dC]-NH2 (disulfide 1-8) [LXW85]
11 | < 1000 nM | Isobutyryl-[dC]GRGD[dD][dV][dC]-NH2 (disulfide 1-8; SMILES CC(C)C(=O)N[C@@H]1CSSC[C@H](C(N)=O)NC(=O)[C@@H](C(C)C)NC(=O)[C@@H](CC(=O)O)NC(=O)[C@H](CC(=O)O)NC(=O)CNC(=O)[C@H](CCCNC(=N)N)NC(=O)CNC1=O) [LXW76]
12 | < 1000 nM | {Ebes(3)}-[dC]GRGD[dD][dV][dC]-NH2 (disulfide 1-8; SMILES CC(C)[C@H]1NC(=O)[C@@H](CC(=O)O)NC(=O)[C@H](CC(=O)O)NC(=O)CNC(=O)[C@H](CCCNC(=N)N)NC(=O)CNC(=O)[C@H](NC(=O)CCC(=O)NCCOCCOCCN)CSSC[C@H](C(N)=O)NC1=O) [LXW57]
13 | < 1000 nM | {2‑naphthoyl}-[dC]GRGD[dD][dV][dC]-NH2 (disulfide 1-8) [LXW89]
14 | < 1000 nM | {biphenyl‑4‑carbonyl}-[dC]GRGD[dD][dV][dC]-NH2 (disulfide 1-8) [LXW84]
15 | < 1000 nM | {3‑phenyl propionyl}-[dC]GRGD[dD][dV][dC]-NH2 (disulfide 1-8) [LXW80]
16 | < 1000 nM | {2‑methylthiazole‑4‑carbonyl}-[dC]GRGD[dD][dV][dC]-NH2 (disulfide 1-8) [LXW86]

System: U-87 MG xenograft
Experiment: In vivo and ex vivo near infra red fluorescent imaging, U-87 MG xenograft
Set-up: species or system nude mice
Conditions: complex of Streptavidin-Cy5.5 with biotinylated peptide, 6 hrs after tail vein injection
Method: Animal studies were performed according to a protocol approved by IACUC of the University of California, Davis.
Animals were placed on a sheet of transparency in different position. […] Images were captured with a CCD camera set at F stop=0, FOV=150, and FP=0. Six hours post injection of imaging complex, the mice were conducted in vivo imaging, then were sacrificed and organs were excised for ex vivo imaging.

Row | liver uptake, ex vivo imaging | tumor uptake, ex vivo imaging | Molecule
17 | reverse | reverse | N=C(N)NCCC[C@@H]1NC(=O)[C@H](CCCCN)NC(=O)[C@@H](Cc2ccc(O)cc2)NC(=O)[C@H](CC(=O)O)NC(=O)CNC1=O [cyclo (RGDyK), cyclo(RGDyK)]
18 | reverse | reverse | N=C(N)NCCC[C@@H]1NC(=O)[C@H](CCCCN)NC(=O)[C@@H](Cc2ccccc2)NC(=O)[C@H](CC(=O)O)NC(=O)CNC1=O [cyclo (RGDfK), cyclo(RGDfK)]
19 | reverse | reverse | N=C(N)NCCC[C@@H]1NC(=O)[C@H](CCC(=O)O)NC(=O)[C@@H](Cc2ccccc2)NC(=O)[C@H](CC(=O)O)NC(=O)CNC1=O [cyclo(RGDfE)]

Target: αvβ3 integrin (Homo sapiens, UniProt P05106+P06756)
Sequence (P06756 31-889 limits assumed): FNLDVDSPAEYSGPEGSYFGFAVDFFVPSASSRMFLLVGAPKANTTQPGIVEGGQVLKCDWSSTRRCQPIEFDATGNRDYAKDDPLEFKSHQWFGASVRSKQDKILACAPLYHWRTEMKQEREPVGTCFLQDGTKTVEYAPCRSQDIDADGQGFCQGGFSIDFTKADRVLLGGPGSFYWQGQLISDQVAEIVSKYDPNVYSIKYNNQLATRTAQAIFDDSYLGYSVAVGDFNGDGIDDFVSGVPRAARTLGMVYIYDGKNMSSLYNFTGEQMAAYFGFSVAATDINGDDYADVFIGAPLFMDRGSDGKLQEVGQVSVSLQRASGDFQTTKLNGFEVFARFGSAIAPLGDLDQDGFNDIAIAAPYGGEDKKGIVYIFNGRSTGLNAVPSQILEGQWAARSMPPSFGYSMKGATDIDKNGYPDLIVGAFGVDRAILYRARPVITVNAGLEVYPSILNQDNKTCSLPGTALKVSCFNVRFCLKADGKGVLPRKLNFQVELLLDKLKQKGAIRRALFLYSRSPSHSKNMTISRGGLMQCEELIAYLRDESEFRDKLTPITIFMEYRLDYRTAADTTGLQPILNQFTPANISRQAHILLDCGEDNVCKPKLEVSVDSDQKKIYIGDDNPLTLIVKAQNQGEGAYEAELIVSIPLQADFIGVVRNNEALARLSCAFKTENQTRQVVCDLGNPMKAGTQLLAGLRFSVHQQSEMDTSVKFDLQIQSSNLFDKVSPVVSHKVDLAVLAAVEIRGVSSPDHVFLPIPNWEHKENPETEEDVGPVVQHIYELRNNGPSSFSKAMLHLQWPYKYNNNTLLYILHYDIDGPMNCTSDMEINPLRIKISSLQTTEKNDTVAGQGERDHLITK
Sequence (P06756 891-1048 partner limits assumed): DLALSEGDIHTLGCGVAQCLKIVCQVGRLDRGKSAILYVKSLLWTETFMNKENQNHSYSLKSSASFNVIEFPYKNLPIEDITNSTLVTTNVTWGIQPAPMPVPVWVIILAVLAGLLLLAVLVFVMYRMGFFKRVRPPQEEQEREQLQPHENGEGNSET
Sequence (P05106 27-788): as the sequence (P05106 27-788, chain 2 of 2) above
Experiment: Inhibition of FITC-Echistatin binding to αvβ3-K562 cells (flow cytometry)
Set-up: expressed in transfected cells; host or cells: K562 (gift of Dr. Yoshikazu Takada, UC Davis)
Conditions: LXW1-8: inhibition of binding of FITC-Echistatin against αvβ3-K562; class symbols; read-out: IC50
Method: The samples were analyzed with Coulter XL-MCL flow cytometry. The histogram and mean fluorescence intensity (MFI) were determined. The apparent Kd, IC50 were calculated using Graph Prism software (≦www.graphpad.com≧).

Row | IC50 | Molecule
20 | 1 to 10 µM | N=C(N)NCCC[C@@H]1NC(=O)CNC(=O)[C@H](N)CSSC[C@H](C(N)=O)NC(=O)[C@@H](Cc2ccccc2)NC(=O)[C@@H](CO)NC(=O)[C@H](CC(=O)O)NC(=O)CNC1=O [LXW1, cGRGDsfc] (H-[dC]GRGD[dS][dF][dC]-NH2; disulfide 1-8)
21 | 1 to 10 µM | N=C(N)NCCC[C@@H]1NC(=O)CNC(=O)[C@H](N)CSSC[C@H](C(N)=O)NC(=O)[C@@H](CO)NC(=O)[C@@H](CC(=O)O)NC(=O)[C@H](CC(=O)O)NC(=O)CNC1=O [LXW5, cGRGDdsc] (H-[dC]GRGD[dD][dS][dC]-NH2; disulfide 1-8)
22 | 1 to 10 µM | N=C(N)NCCC[C@@H]1NC(=O)CNC(=O)[C@H](N)CSSC[C@H](C(N)=O)NC(=O)[C@@H](Cc2ccccc2)NC(=O)[C@@H](CC(=O)O)NC(=O)[C@H](CC(=O)O)NC(=O)CNC1=O [LXW2, cGRGDdfc] (H-[dC]GRGD[dD][dF][dC]-NH2; disulfide 1-8)
23 | < 1 µM | N=C(N)NCCC[C@@H]1NC(=O)CNC(=O)[C@H](N)CSSC[C@H](C(N)=O)NC(=O)[C@@H](CCC(=O)O)NC(=O)[C@@H](CO)NC(=O)[C@H](CC(=O)O)NC(=O)CNC1=O [LXW3, cGRGDsec] (H-[dC]GRGD[dS][dE][dC]-NH2; disulfide 1-8)

Same assay, conditions: LXW1-8 series

Row | binding affinity compared with LXW7 or the Arg parent, in words | Molecule
24 | decreased the affinity | NCCCC[C@@H]1NC(=O)CNC(=O)[C@H](N)CSSC[C@H](C(N)=O)NC(=O)[C@@H](CO)NC(=O)[C@@H](CC(=O)O)NC(=O)[C@H](CC(=O)O)NC(=O)CNC1=O [LXW6, cGKGDdsc] (H-[dC]GKGD[dD][dS][dC]-NH2; disulfide 1-8)
25 | decreased the affinity | NCCCC[C@@H]1NC(=O)CNC(=O)[C@H](N)CSSC[C@H](C(N)=O)NC(=O)[C@@H](CCC(=O)O)NC(=O)[C@@H](CO)NC(=O)[C@H](CC(=O)O)NC(=O)CNC1=O [LXW4, cGKGDsec] (H-[dC]GKGD[dS][dE][dC]-NH2; disulfide 1-8)
26 | decreased the affinity | CC(C)[C@H]1NC(=O)[C@@H](CC(=O)O)NC(=O)[C@H](CC(=O)O)NC(=O)CNC(=O)[C@H](CCCCN)NC(=O)CNC(=O)[C@H](N)CSSC[C@H](C(N)=O)NC1=O [LXW8, cGKGDdvc] (H-[dC]GKGD[dD][dV][dC]-NH2; disulfide 1-8)

Same assay, conditions: biotinylated peptides; read-out: IC50 (μM) Inhibit FITC-Echistatin binding with αvβ3-K562

Row | IC50 | Molecule
27 | 1.37 ± 0.2 µM | N=C(N)NCCC[C@@H]1NC(=O)[C@H](CCCCNC(=O)CCC(=O)NCCOCCOCCNC(=O)CCC(=O)N[C@@H](CCCCNC(=O)CCCC[C@@H]2SC[C@@H]3NC(=O)N[C@@H]32)C(N)=O)NC(=O)[C@@H](Cc2ccccc2)NC(=O)[C@H](CC(=O)O)NC(=O)CNC1=O [cyclo (RGDfK)-Bio, Biotinylated Cyclo(RGDfK), reference compound]
